Test results reported in paper PMC4911930.

Columns and labels:
Spt16 956–960A (human) = Spt16 956–960A (human) (UniProt Q9Y5B9); assay: pull-down; GST-tagged Spt16 fragments and alanine mutants as bait, CENP-T^HFD/-W as prey, GST alone as control; Coomassie gel; also with 1 M NaCl for 926–1047 (Supplemental Fig. S5a)
Spt16 952–955A (human) = Spt16 952–955A (human) (UniProt Q9Y5B9); assay: as above
[1] = molecular target: Spt16 (human (endogenous in HeLa and U2OS)) (UniProt Q9Y5B9)
CENP-T^HFD/-W complex = CENP-T^HFD/-W complex (UniProt Q5EE01); assay: ITC; Spt16-CTD (amino acids 926–965; 2.2 mM) injected into 200 µL of 150 µM CENP-T/-W, human H2A/H2B or CENP S/X; 20°C; 20 mM Tris pH 7.5, 0.2 M NaCl; single-site model for CENP-T/-W, two-site model for H2A/H2B

CENP-T, sequence (Q96BT3 whole entry): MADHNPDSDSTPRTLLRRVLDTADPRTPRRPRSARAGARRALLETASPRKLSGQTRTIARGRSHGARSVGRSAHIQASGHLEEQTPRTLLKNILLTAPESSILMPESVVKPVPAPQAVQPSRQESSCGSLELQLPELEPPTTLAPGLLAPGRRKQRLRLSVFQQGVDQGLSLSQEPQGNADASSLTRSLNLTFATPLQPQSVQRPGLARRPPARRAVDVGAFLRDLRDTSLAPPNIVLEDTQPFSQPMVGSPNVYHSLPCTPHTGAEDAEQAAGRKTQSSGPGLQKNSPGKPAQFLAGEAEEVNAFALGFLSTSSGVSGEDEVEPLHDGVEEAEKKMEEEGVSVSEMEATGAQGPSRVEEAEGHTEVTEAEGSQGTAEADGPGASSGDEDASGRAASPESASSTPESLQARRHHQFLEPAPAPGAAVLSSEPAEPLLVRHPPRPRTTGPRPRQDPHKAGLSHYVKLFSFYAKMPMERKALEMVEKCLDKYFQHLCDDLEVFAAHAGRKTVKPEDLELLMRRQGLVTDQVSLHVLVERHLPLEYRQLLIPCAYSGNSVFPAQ

For “CENP-T^HFD/-W complex (from UniProt Q5EE01 1-88)”, the percent reduction of binding against unmutated Spt16 926–965 (Spt16 956–960A (human)) was < 60% and the percent reduction of binding against unmutated Spt16 926–965 (Spt16 952–955A (human)) was < 40%.
“CENP-T (from UniProt Q96BT3 1-561) (natural protein)” was tested, and the accumulation of endogenous CENP-T at the LacO locus in cells transfected with eGFP-LacI-Spt16 (immunofluorescence after 24 h) [1] was 10 % of cells.
“Spt16-CTD (Spt16 amino acids 926–965) (from UniProt Q9Y5B9 926-965) (domain or fragment)” showed a Kd (CENP-T^HFD/-W complex) of 6.3 µM.
